The data set concerns Escherichia coli TOP10. Kind of data set: shrunken log2 fold change of peptide-encoding DNA abundance (4.5 h post-induction vs induction); higher = less antimicrobial activity (less host growth inhibition). The settings on record: time post-induction: 4.5 h; library: site-saturation at positions 5, 18, 19, 20.
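Further: peptides expressed intracellularly from a pBAD plasmid library in pooled LB shake-flask culture, induced with 0.3% L-arabinose, DNA abundance read by NGS, three biological replicates, DESeq2 with apeglm shrinkage.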

As to RRIRHRPPRLPRPRPRPHSQPRP, the “shrunken log2 fold change” value is -0.224.
The same measure for RRIRRRPPRLPRPRPRPQRFPRP: 0.294; for RRIRTRPPRLPRPRPRPKISPRP: -0.932.
As for RRIRSRPPRLPRPRPRPMPAPRP, the “shrunken log2 fold change” value worked out at 0.26.
Take RRIRRRPPRLPRPRPRPYKFPRP: the “shrunken log2 fold change” value worked out at 0.0202.
Consider RRIRARPPRLPRPRPRPVAMPRP, for which the “shrunken log2 fold change” value worked out at 0.383.
On to RRIRFRPPRLPRPRPRPHHKPRP, for which the “shrunken log2 fold change” value is -0.462.
Regarding RRIRYRPPRLPRPRPRPGRFPRP, the “shrunken log2 fold change” value was -0.0548.
RRIRSRPPRLPRPRPRPKYFPRP: the “shrunken log2 fold change” value was -0.146.
The same measure for RRIRIRPPRLPRPRPRPDRMPRP: -0.0164; for RRIRPRPPRLPRPRPRPEMRPRP: 0.329; for RRIRTRPPRLPRPRPRPFIIPRP: -0.919.
The same measure for RRIRHRPPRLPRPRPRPKWEPRP: -0.000889.
With RRIRIRPPRLPRPRPRPAKLPRP the figure was -0.302; with RRIRSRPPRLPRPRPRPDSPPRP, 0.242.
With RRIRPRPPRLPRPRPRPLPKPRP, the “shrunken log2 fold change” value was determined as 0.216.
The same measure for RRIRVRPPRLPRPRPRPDMWPRP: -0.499; for RRIRGRPPRLPRPRPRPKRKPRP: 0.835.
For the sequence RRIRPRPPRLPRPRPRPIHRPRP, the “shrunken log2 fold change” value is -0.0135.
For the sequence RRIRCRPPRLPRPRPRPAIMPRP, the “shrunken log2 fold change” value is -0.0676.
On to RRIRKRPPRLPRPRPRPSEGPRP, for which the “shrunken log2 fold change” value turned out to be 0.0116.
Consider RRIRWRPPRLPRPRPRPFSLPRP, for which the “shrunken log2 fold change” value came out at 0.141.
With RRIRERPPRLPRPRPRPSFHPRP the figure was -0.549; with RRIRYRPPRLPRPRPRPNEGPRP, -0.363.
Turning to RRIRLRPPRLPRPRPRPCEKPRP, the “shrunken log2 fold change” value is -0.00674.
With RRIRDRPPRLPRPRPRPWCDPRP the figure was 0.211.
In the case of RRIRLRPPRLPRPRPRPQNEPRP, the “shrunken log2 fold change” value was -0.459.
The same measure for RRIRVRPPRLPRPRPRPMNVPRP: -0.0915; for RRIRKRPPRLPRPRPRPGTMPRP: 0.0526.
The same measure for RRIRFRPPRLPRPRPRPWFPPRP: -0.0773; for RRIRYRPPRLPRPRPRPHKQPRP: -0.0853; for RRIRSRPPRLPRPRPRPFPAPRP: 0.0186.
With RRIRERPPRLPRPRPRPLNFPRP the figure was -0.34; with RRIRARPPRLPRPRPRPNFRPRP, 0.376; with RRIRPRPPRLPRPRPRPAKCPRP, -0.172.
As for RRIRHRPPRLPRPRPRPLANPRP, the “shrunken log2 fold change” value is -0.263.
For the sequence RRIRVRPPRLPRPRPRPDFYPRP, the “shrunken log2 fold change” value was -0.25.
Consider RRIRIRPPRLPRPRPRPQIFPRP, for which the “shrunken log2 fold change” value was 0.0997.
Take RRIRFRPPRLPRPRPRPHEQPRP: the “shrunken log2 fold change” value came out at 0.0928.
In the case of RRIRYRPPRLPRPRPRPQPDPRP, the “shrunken log2 fold change” value is -0.0504.
As for RRIRCRPPRLPRPRPRPMEHPRP, the “shrunken log2 fold change” value is -0.0605.
As for RRIRHRPPRLPRPRPRPLKHPRP, the “shrunken log2 fold change” value is -0.869.
The same measure for RRIRKRPPRLPRPRPRPCEAPRP: 0.277; for RRIRMRPPRLPRPRPRPEWRPRP: 0.829.
In the case of RRIRYRPPRLPRPRPRPALKPRP, the “shrunken log2 fold change” value is 0.0554.
For the sequence RRIRARPPRLPRPRPRPPLCPRP, the “shrunken log2 fold change” value came out at 0.762.
As for RRIRQRPPRLPRPRPRPMNGPRP, the “shrunken log2 fold change” value is -0.0825.
The same measure for RRIRCRPPRLPRPRPRPWKVPRP: 0.101.
As to RRIRTRPPRLPRPRPRPVYYPRP, the “shrunken log2 fold change” value was -1.24.
With RRIRVRPPRLPRPRPRPWVRPRP, the “shrunken log2 fold change” value is 0.0573.
Turning to RRIRNRPPRLPRPRPRPFEIPRP, the “shrunken log2 fold change” value was -0.0195.
With RRIRLRPPRLPRPRPRPGFTPRP the figure was -0.191; with RRIRWRPPRLPRPRPRPQWNPRP, -0.156; with RRIRCRPPRLPRPRPRPSLRPRP, -0.305.
With RRIRSRPPRLPRPRPRPMTQPRP, the “shrunken log2 fold change” value is -0.116.
The same measure for RRIRMRPPRLPRPRPRPVHGPRP: 0.32.
RRIRIRPPRLPRPRPRPLFCPRP: the “shrunken log2 fold change” value is -0.517.
For the sequence RRIRWRPPRLPRPRPRPHGSPRP, the “shrunken log2 fold change” value was found to be 0.173.
RRIRWRPPRLPRPRPRPCPTPRP: the “shrunken log2 fold change” value came out at 0.0714.
With RRIRRRPPRLPRPRPRPIGWPRP, the “shrunken log2 fold change” value turned out to be 0.217.
The same measure for RRIRKRPPRLPRPRPRPAHNPRP: 0.473; for RRIRFRPPRLPRPRPRPTYFPRP: -0.175.
The same measure for RRIRLRPPRLPRPRPRPGWAPRP: 0.691; for RRIRVRPPRLPRPRPRPTLDPRP: 0.125; for RRIRIRPPRLPRPRPRPECHPRP: 0.0255.
For RRIRCRPPRLPRPRPRPAGRPRP, the “shrunken log2 fold change” value turned out to be 0.373.
In the case of RRIRARPPRLPRPRPRPGWEPRP, the “shrunken log2 fold change” value worked out at 0.274.
The same measure for RRIRGRPPRLPRPRPRPNNWPRP: 0.121; for RRIRKRPPRLPRPRPRPLSHPRP: 0.131.
With RRIRFRPPRLPRPRPRPAQPPRP the figure was 0.277; with RRIRIRPPRLPRPRPRPHIGPRP, -0.17.
In the case of RRIRRRPPRLPRPRPRPTVMPRP, the “shrunken log2 fold change” value was 0.286.
The same measure for RRIRDRPPRLPRPRPRPLRPPRP: 1.15; for RRIRMRPPRLPRPRPRPTFGPRP: 0.374; for RRIRTRPPRLPRPRPRPTCNPRP: -0.533.
With RRIRERPPRLPRPRPRPRYGPRP the figure was 1.59; with RRIRCRPPRLPRPRPRPLKNPRP, -0.208.
On to RRIRERPPRLPRPRPRPMQWPRP, for which the “shrunken log2 fold change” value came out at 0.00938.
With RRIRLRPPRLPRPRPRPKAAPRP the figure was 0.679; with RRIRPRPPRLPRPRPRPSEYPRP, -0.366; with RRIRYRPPRLPRPRPRPFTEPRP, -0.955.
With RRIRQRPPRLPRPRPRPGNEPRP the figure was 0.177; with RRIRPRPPRLPRPRPRPMFTPRP, -0.178; with RRIRIRPPRLPRPRPRPKLKPRP, -0.688.
The same measure for RRIRKRPPRLPRPRPRPNVYPRP: -0.0771; for RRIRRRPPRLPRPRPRPPGSPRP: 0.413.
For the sequence RRIRWRPPRLPRPRPRPHCMPRP, the “shrunken log2 fold change” value was found to be 0.0179.
With RRIRMRPPRLPRPRPRPPYHPRP the figure was -0.0913.
With RRIRKRPPRLPRPRPRPIMNPRP the figure was -0.119; with RRIRKRPPRLPRPRPRPTTQPRP, 0.196; with RRIRTRPPRLPRPRPRPFNQPRP, -0.163.

For the origin of these results see the supplement of paper PMC9112550, “Optimization of the antimicrobial peptide Bac7 by deep mutational scanning” (BMC Biology, 2022).
